Assay results: the supplement of paper PMC10567573

B1: ANKRD9 (parent)
chain: LLEDMRASEAFHWDERGRAAAYSP

Variants of: B1
Test: protein stability index of a GFP-peptide fusion (GPS, HEK-293T) (PSI 1-6); higher = more stable
Conditions: c terminus: a fixed tail appended
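Also: lentivirally expressed fusions sorted by FACS into six bins by GFP to DsRed ratio, PSI derived from sequencing read proportions per bin multiplied by bin number.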

In order of falling protein stability index:
1. LLEDERASEAFHWDERGRAAAYSP  4.66
2. LLEDMRASQAFHWDERGRAAAYSP  4.46
3. LLEDMRPSEAFHWDERGRAAAYSP  4.21
4. LLEDMRANEAFHWDERGRAAAYSP  4.13
5. LLEDTRASEAFHWDERGRAAAYSP  4.12
6. LLEDNRASEAFHWDERGRAAAYSP  4.1
7. LLEDPRASEAFHWDERGRAAAYSP  4.09
8. LLEDKRASEAFHWDERGRAAAYSP  3.97
9. LLEDMRAKEAFHWDERGRAAAYSP  3.96
10. LLEDGRASEAFHWDERGRAAAYSP  3.94
11. LLEDFRASEAFHWDERGRAAAYSP  3.94
12. LLEDARASEAFHWDERGRAAAYSP  3.92
13. LLEDQRASEAFHWDERGRAAAYSP  3.91
14. LLEDMRAQEAFHWDERGRAAAYSP  3.91
15. LLEDMRADEAFHWDERGRAAAYSP  3.89
16. LLEDYRASEAFHWDERGRAAAYSP  3.83
17. LLEDVRASEAFHWDERGRAAAYSP  3.77
18. LLEDMRASEAKHWDERGRAAAYSP  3.72
19. LLEDWRASEAFHWDERGRAAAYSP  3.64
20. LLEDMRHSEAFHWDERGRAAAYSP  3.62
21. LLEDMRASEADHWDERGRAAAYSP  3.58
22. LLEDHRASEAFHWDERGRAAAYSP  3.39
23. LLEDMRAFEAFHWDERGRAAAYSP  3.31
24. LLEDMRASHAFHWDERGRAAAYSP  3.31
25. LLEDSRASEAFHWDERGRAAAYSP  3.3
26. LLEDMRAAEAFHWDERGRAAAYSP  3.3
27. LLEDMRAPEAFHWDERGRAAAYSP  3.3
28. LLEDMRASKAFHWDERGRAAAYSP  3.29
29. LLEDMRASEAGHWDERGRAAAYSP  3.23
30. LLEDMRAHEAFHWDERGRAAAYSP  3.13
31. LLEDMRAWEAFHWDERGRAAAYSP  3.13
32. LLEDMRASAAFHWDERGRAAAYSP  3.12
33. LLEDMRAMEAFHWDERGRAAAYSP  3.04
34. LLEDMRGSEAFHWDERGRAAAYSP  3.01
35. LLEDMRASSAFHWDERGRAAAYSP  3
36. LLEDMRASDAFHWDERGRAAAYSP  2.99
37. LLEDMRASTAFHWDERGRAAAYSP  2.96
38. LLEDMRASEAFHWDFRGRAAAYSP  2.95
39. LLEDMRASEASHWDERGRAAAYSP  2.91
40. LLEDIRASEAFHWDERGRAAAYSP  2.89
41. LLEDMRAREAFHWDERGRAAAYSP  2.88
42. LLEDMRASEARHWDERGRAAAYSP  2.87
43. LLEDMRASEANHWDERGRAAAYSP  2.84
44. LLEDMRASEAFHWDIRGRAAAYSP  2.83
45. LLEDMRAVEAFHWDERGRAAAYSP  2.82
46. LLEDMRASPAFHWDERGRAAAYSP  2.8
47. LLEDMRASRAFHWDERGRAAAYSP  2.77
48. LLEDMRALEAFHWDERGRAAAYSP  2.73
49. LLEDMRASEAAHWDERGRAAAYSP  2.71
50. LLEDMRAYEAFHWDERGRAAAYSP  2.7
51. LLEDMRASEAFHWDCRGRAAAYSP  2.68
52. LLEDMRASEAFHWDHRGRAAAYSP  2.68
53. LLEDMRASEAHHWDERGRAAAYSP  2.66
54. LLEDMRFSEAFHWDERGRAAAYSP  2.64
55. LLEDMRASEAPHWDERGRAAAYSP  2.5
56. LLEDMRASEATHWDERGRAAAYSP  2.5
57. LLEDMRACEAFHWDERGRAAAYSP  2.5
58. LLEDMRASYAFHWDERGRAAAYSP  2.48
59. LLEDMRASMAFHWDERGRAAAYSP  2.46
60. LLEDMRMSEAFHWDERGRAAAYSP  2.34
61. LLEDMRASEAQHWDERGRAAAYSP  2.32
62. LLEDMRASFAFHWDERGRAAAYSP  2.32
63. LLEDMRASEAMHWDERGRAAAYSP  2.28
64. LLEDMRAGEAFHWDERGRAAAYSP  2.19
65. LLEDMRASVAFHWDERGRAAAYSP  2.19
66. LLEDMRASGAFHWDERGRAAAYSP  2.06
67. LLEDMRASEAYHWDERGRAAAYSP  2.03
68. LLEDMRASEALHWDERGRAAAYSP  1.98
69. LLEDMRISEAFHWDERGRAAAYSP  1.96
70. LLEDMRAIEAFHWDERGRAAAYSP  1.95
71. LLEDMRASEAFHWDQRGRAAAYSP  1.94
72. LLEDMRASEAFHWDTRGRAAAYSP  1.91
73. LLEDMRASLAFHWDERGRAAAYSP  1.89
74. LLEDMRASEAFHWDPRGRAAAYSP  1.88
75. LLEDMRATEAFHWDERGRAAAYSP  1.82
76. LLEDMRASEAFHWDYRGRAAAYSP  1.81
77. LLEDMRYSEAFHWDERGRAAAYSP  1.8
78. LLEDMRQSEAFHWDERGRAAAYSP  1.8
79. LLEDMRASEAFHWDKRGRAAAYSP  1.8
80. LLEDMRASIAFHWDERGRAAAYSP  1.79
81. LLEDMRSSEAFHWDERGRAAAYSP  1.78
82. LLEDMRASEAIHWDERGRAAAYSP  1.78
83. LLEDMRRSEAFHWDERGRAAAYSP  1.76
84. LLEDMRASEAEHWDERGRAAAYSP  1.74
85. LLEDMRASEAFHWDGRGRAAAYSP  1.7
86. LLEDMRASEAFHWDSRGRAAAYSP  1.64
87. LLEDLRASEAFHWDERGRAAAYSP  1.6
88. LLEDMRASEAFHWDRRGRAAAYSP  1.58
89. LLEDMRASEAFHWDDRGRAAAYSP  1.56
90. LLEDMRASEAFHWDVRGRAAAYSP  1.52
91. LLEDMRASEAFHWDLRGRAAAYSP  1.5
92. LLEDMRASEAFHWDMRGRAAAYSP  1.32
93. LLEDMRASWAFHWDERGRAAAYSP  1.32
94. LLEDMRASEAFHWDARGRAAAYSP  1.31
